These are literature values, as cited in publication PMC10586765.

For this series, the target named is UBL4A (Homo sapiens) (UniProt P11441). Description: surface plasmon resonance. (In general: SPR reads the build-up and loss of mass on a sensor chip optically.)
Sequence of UniProt P11441 (P11441 whole entry): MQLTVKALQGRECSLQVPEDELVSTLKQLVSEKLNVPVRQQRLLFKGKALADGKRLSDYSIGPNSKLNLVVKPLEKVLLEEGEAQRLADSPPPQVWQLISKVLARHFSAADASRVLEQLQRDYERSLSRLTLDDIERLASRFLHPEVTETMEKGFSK

The term Kd denotes a measure of binding affinity in units of concentration. As for BAG6 (from UniProt P46379), the Kd was 2.2 nM.
